Values quoted from earlier work in PMC5758107.
pKd: −log10 of the molar value. Where “and” joins values, the source holds several entries; their conditions need not be identical. Identical values can stand only once.

Molecular target: Foc ribosome-nascent chain complex (Escherichia coli) (UniProt P68699)
Assay: fluorescence correlation spectroscopy

Chain of UniProt P68699 (P68699 whole entry, one chain of several): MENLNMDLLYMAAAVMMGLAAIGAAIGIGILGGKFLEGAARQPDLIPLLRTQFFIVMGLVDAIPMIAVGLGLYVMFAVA

Substance: YidC (from UniProt P25714)
- pKd: 6.68 and 7.07
